Test results reported in patent publication US20240252641A1 (TCR2 THERAPEUTICS, published 2024).

B1: human CD70, recombinant, N-terminally biotinylated (residues 39-193) (ligand, UniProt P32970 39-193, looked up)
chain: QRFAQAQQQLPLESLGWDVAELQLNHTGPQQDPRLYWQGGPALGRSFLHGPELDKGQLRIHRDGIYMVHIQVTLAICSSTTASRHHPTTLAVGICSPASRSISLLRLSFHQGCTIASQRLTPLARGDTLCTNLTGTLLPSRNTDETFFGVQWVRP
modifications: N-terminal biotin
notes: range 39-193; the same entry is used there; also called biotinylated human CD70; CD70 biotin

Legend:
[1] = molecular target: T1, CD70 on cells (CHO-CD70, JVM-3, U266, Raji, THP-1, T cells) (human, UniProt P32970 1-193); experiment: cell ELISA, about 500 nM VHH-His, anti-His-HRP
T1 construct: whole, on cells; also called cell-surface CD70
T1 sequence (looked up): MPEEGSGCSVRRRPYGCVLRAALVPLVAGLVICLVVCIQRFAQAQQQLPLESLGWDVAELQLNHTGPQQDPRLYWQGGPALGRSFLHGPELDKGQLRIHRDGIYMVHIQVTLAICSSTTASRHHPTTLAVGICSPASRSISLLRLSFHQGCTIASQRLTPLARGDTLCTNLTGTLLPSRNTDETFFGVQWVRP
Procedure: A cell binding ELISA was carried out to determine whether the anti-CD70 VHHs could recognize the antigen on cells. ˜500 nM each VHH-his was diluted in blocking buffer (PBS+0.01% Tween20+2% non-fat dry milk) and added to wells containing 100,000-200,000 pre-blocked CHO-CD70 cells (high CD70 expression), JVM3 cells (medium-low CD70 expression), wild type CHO cells (negative control), HL60 cells (negative control). The plate was incubated for 1 hour at room temperature with agitation. After incubation cells were washed 3 times by spinning down and dumping of the supernatant followed by addition of PBST. Subsequently, secondary antibody was applied (anti-His-HRP) and the mixture incubated for 30 minutes. After 3 more washes TMB substrate was applied to the plates and the reaction was allowed to proceed for 1-5 minutes before 1M HCl was applied as a stop solution. Immediately following application of the stop solution the absorbance at 450 nm (OD₄₅₀) of each well was measured on a spectrophotometer.

[2] = molecular target: T1, CD70 on cells (CHO-CD70, JVM-3, U266, …); experiment: binding to CD70-expressing CHO cells with and without CD27-Fc
Procedure, shortened: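 Anti-CD70 antibodies and CD27-Fc were applied to CHO cells with CD70 attached to the cell surface, in four set-ups. Each was applied alone; antibody was premixed with CD27-Fc; or cells were first coated with CD27-Fc or with antibody, washed, and then given the mixture. The binding signal was then measured in each set-up.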

[3] = molecular target: T2, human CD27 fused to human Fc domain (human, UniProt P26842 21-192, limits assumed); experiment: BLI, biotinylated CD70 on streptavidin sensors, 400 nM analyte
T2 construct: bought reagent; also called CD27-Fc; CD27Fc
T2 sequence (looked up): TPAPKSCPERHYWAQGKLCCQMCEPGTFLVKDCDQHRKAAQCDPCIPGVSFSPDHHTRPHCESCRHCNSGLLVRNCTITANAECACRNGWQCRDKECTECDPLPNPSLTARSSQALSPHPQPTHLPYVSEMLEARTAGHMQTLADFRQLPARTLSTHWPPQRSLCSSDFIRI
Procedure: (§1) Bio-layer interferometry was used to measure the binding affinity of CD70 to CD70-targeted antibodies 41D12, R3P3H12, R3P5A1, R3aP3E8, and R3aP9D10, and human CD27 fused to human Fc domain (CD27-Fc; Acro Biosystems cat. CD7-h5254). […] Following CD70 immobilization, biosensors were immersed in Octet Buffer to remove unbound, biotinylated CD70 and to establish a flat baseline sensor signal. CD70-loaded Biosensors were then transferred to Octet buffer containing 400 nM of CD27-Fc or αCD70 antibody and association was monitored for 5 minutes at 30° C. whilst agitating at 1,000 RPM. An scFv fragment derived from humanized llama αCD70 antibody 41D12 and fused to human Fc (41D12-Fc) served as a positive control for CD70 binding and an αLysozyme single-domain camelid antibody (clone D2-L19) was used as a negative control. CD27-Fc or αCD70 antibody dissociation was initiated by transferring sensors to Octet buffer and monitored for 5 minutes. Data were analyzed using ForteBio Data Analysis Suite 9.0. The observed association (kₒₙ) and dissociation (koff) rates for the binding of single-domain antibodies to CD70 were determined using a 1:1 curve fitting model to obtain, in all cases, R²≥0.95. Values of the equilibrium dissociation constant for binding to CD70, KD, were determined from the ratio of koff and kₒₙ.

[4] = molecular target: B1; experiment: as above
Procedure: as §1

[5] = molecular target: T3, CD70 (UniProt P32970 39-193, limits assumed); experiment: Octet (BLI); hybridoma mAb, CD70 at 100 nM
T3 construct: also called CD70 (100 nM)
T3 sequence (looked up): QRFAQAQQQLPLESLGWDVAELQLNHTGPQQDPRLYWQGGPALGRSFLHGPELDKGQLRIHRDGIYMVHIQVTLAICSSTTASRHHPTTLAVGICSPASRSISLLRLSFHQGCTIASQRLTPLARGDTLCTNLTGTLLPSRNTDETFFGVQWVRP

[6] = molecular target: T3, CD70; experiment: Octet (BLI); mAb binding to CD70 with CD27 (competitor CD27)

| binding result [2] | Kd [5] | Response [5] | koff [5] | kon [5] | CD27:CD70 Interaction Neutralization of mAb Binding [6] | also measured | Binder |
| --- | --- | --- | --- | --- | --- | --- | --- |
|  |  |  |  |  |  | binding result [1]: binds | R3P2G8 VHH (VHH, tested as VHH-His) VHH: QVQLQESGGGLVQTGGSLRLSCTASGSIFDIARGNWYRQAPGKQRELVAIITSGGATNYADSVAGRFTISRDDAKNTVYLQMNGLKPEDTAVYFCNMESLSYRHYWGQGTQVTVSS |
| binds |  |  |  |  |  |  | R2P14A12 VHH (VHH, tested as VHH-His) VHH: QVQLQESGGGLVQPGGSLRLSCVASGFTLDRYAVGWFRQAPGKELEGVSCISSSGDIIKYADSAKGRFTIARDNAKNTAYLQMNSLKPEDTAVYYCTAADPKDDCSVPGYYGLNYWGKGTQVTVSS |
|  |  |  |  |  |  | binding result [3]: binds | B1 |
| binds |  |  |  |  |  | binding result [4]: binds | R3aP9D10 VHH (VHH, tested as VHH-His) VHH: QVQLQESGGGLVQAGGSLRLSCAAPGFTFDAYAIGWFRQAPGKEREGVICLSPSDGSTYYADSVKGRFTISSDNAKNTVYLQMNSLKPEDTAVYYCATPSWCSLKADFGSWGQGTQVTVSS |
| binds |  |  |  |  |  |  | R3aP4D6 VHH (VHH) VHH: QVQLQESGGGLVQAGGSLRLSCAASKSIIRDNVMAWHRQAPGKQRELVAIINTGGSANVDDSVKGRFTISRDNAKNMVYLQMNNLKPEDTAVYYCNVYYRDLWGQGTQVTVSS |
|  | 0.00603 nM | 0.434 | 5.28e-07 s⁻¹ | 87500 M⁻¹ s⁻¹ | 0.0553 |  | 9A1 (9A1H6) (antibody, V domains shown, IgG in hybridoma supernatant) VH: QVQLVQSGAEVKKPGASVKVSCKASGYSFTGYYMHWVRQAPGQGLEWMGWINPKSGGTSYAQQFQGRVTMTRDTSMSTVYMELTRLRADDTAVYYCARLYYSGWYGDYWGQGTLVTVSS VL: DIQMTQSPSSLSASVGDRVTITCQASQDINNYLNWYQQKPGKVPNLLIYDASNLETGVPSRFSGSGSGTDFTFTISSLQPEDIATYYCQQYNNPPITFGQGTRLEIK |
| binds |  |  |  |  |  | binding result [4]: binds | R3P5A1 VHH (VHH, tested as VHH-His) VHH: QVQLQESGGGLVQPGGSLRLSCTASGSIFSATRMEWYRQAPGKQRELVAIVTSGGRTNYADSVNGRFTISRDNAKNTLYLQMNNLKPEDTAVYYCKFERYDYVNYWGRGTQVTVSS |
|  | 1.28 nM | 0.357 | 0.000167 s⁻¹ | 130000 M⁻¹ s⁻¹ | 0.0429 |  | 4G7 (4G7E8) (antibody, V domains shown, IgG in hybridoma supernatant; The variable domains exist only inside scFv entries 1213/1214) VH: QVQLVESGGGVVQPGRSLRLSCAASGFTFSSYGLHWVRQAPGKGLDWVAVIWYDGSNKYYVDSVKGRFTISRDNSMNTLFLQMNSLRAEDTAVYYCARDEAAAAGAFDIWGQGTMVTVSS VL: DIQLTQSPSFLSASVGDRVTITCRASQGISSYLAWYQQKPGKAPKLLIYAASTLQSGVPSRFSGSGSGTEFTLTISSLQPEDFATYYCQQLNYYSITFGQGTRLEIK |
| binds |  |  |  |  |  | binding result [4]: binds | R3P3H12 VHH (VHH, tested as VHH-His) VHH: QVQLQESGGGLVQTGGSLRLSCTASGSIFDIVRGSWYRQAPGNQRELVAIITSGGATNYADSVAGRFTISRDSAWKALYLQMNSLKPEDTAVYFCNMESVRYRNYWGQGTQVTVSS |
| binds |  |  |  |  |  |  | R3P15F6 VHH (VHH) VHH: QVQLQESGGGLVQPGGSLRLSCVASGFTLDKYAIGWFRQAPGKELEGVSCITSSSGVVKYADSVKGRFIISRDNTNNRAFLQMSSLKPEDTAVYYCAAAGPPDDCSVPGYYGLNYWGKGTQVTVSS |
|  | 6.6 nM | 0.698 | 0.000555 s⁻¹ | 84100 M⁻¹ s⁻¹ | 0.0275 |  | 2F1 (2F1F7) (antibody, V domains shown, IgG in hybridoma supernatant; The variable domains exist only inside scFv entries 1215/1216) VH: EVQLVESGGVVVQPGGSLRLSCAASGFTFDDYTMHWVRQAPGKGLEWVSLVSWDGGSTYYADSVKGRFTTSRDNSKKFLYLQMNRLRTEDTALYFCAIDRAYRPYYYYHMDVWGKGTTVTVSS VL: not shown |
|  | 0.255 nM | 0.506 | 3.88e-05 s⁻¹ | 152000 M⁻¹ s⁻¹ | 0.102 |  | 1E3 (1E3D9) (antibody, V domains shown, IgG in hybridoma supernatant) VH: QLQLQESGPGLVKPSETLSLTCTVSGASITSTSYYWNWIRQPPGKGLEWIGRISYSGSTYYNPSLKSRVTISVDTSKNQFSLKLSSVTATDTAVYYCARQIRYNWNPDTFDIWGQGTMVTVSS VL: EIVMTQSPATLSVSPGERATLSCRASQSLNSNLAWYQQKPAQAPRLLIYGASTRATGIPARFSGSGSGTEFTLTISSLQSEDFAVYYCQQYDNWPLTFGGGTKVEIK |
